Source: patent US20230212304A1 (BIOSION, published 2023)
Positions count from the first letter of the chain named.

T1: recombinant human CTLA4 protein with human IgG1 Fc tag at the C-terminus (Acro biosystems, Cat#CT4-H5255) (human, UniProt P16410 37-162)
T1 sequence (looked up): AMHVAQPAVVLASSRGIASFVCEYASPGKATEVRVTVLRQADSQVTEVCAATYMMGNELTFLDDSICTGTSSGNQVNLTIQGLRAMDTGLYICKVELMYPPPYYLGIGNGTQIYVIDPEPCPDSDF

T2: recombinant human CTLA4-his protein (Acro biosystems, Cat#CT4-H5229) (human, UniProt P16410 37-162)
T2 construct: bought recombinant protein; not shown: his tag
T2 sequence (looked up): T1 sequence (looked up)

T3: cynomolgus monkey CTLA4-his protein (Acro biosystems, Cat#CT4-C5227) (cynomolgus monkey, UniProt G7PL88 36-161)
T3 construct: bought recombinant protein; also called Cynomolgus CTLA4-his; not shown: his tag
T3 sequence: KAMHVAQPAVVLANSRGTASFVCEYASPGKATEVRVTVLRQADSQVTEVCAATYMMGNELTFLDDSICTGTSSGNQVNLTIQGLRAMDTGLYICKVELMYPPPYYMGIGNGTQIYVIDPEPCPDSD

B1: mouse anti-CTLA4 monoclonal antibody D1B8 (antibody, V domains shown)
VH: QIQLQQSGPELVKPGASVKISCKASGYTFTDYYINWVKQRPGQGLEWIGWIYPGNNNTRYNEKFKGKATLTIDTSSSTAFMHLSSLTSEDSAVYFCARYYFDYWGQGTTLTVSS
VL: DIQMTQSPSSLSASLGERISLTCRASQEITGYLSWLQQKPDGTIKRLIYAASTLDSGVPQRFSGSRSGSDYSLTISSLESEDFADYYCLQYASYPRTFGGGTKLEIK
notes: mouse mAb purified from hybridoma supernatant
B2: huC1D1-V5 (antibody, human IgG4 S228P, kappa, V domains shown)
VH: EVQLVESGGGLVQPGRSLRLSCTASGFTFSDNWMNWVRQAPGKGLEWVAQIRNKPYNYETYYSDSVKGRFTISRDDSKSIVYLQMNSLKTEDTAVYYCTGGMDYWGQGTTVTVSS
VL: DIQMTQSPSSLSASVGDRVTITCGASEIIYGALNWYQQKPGKSPKLLIYGATNLADGVPSRFSGSGSGTDFTLTISSLQPEDVATYYCQKILSPPPWTFGGGTKVEIKR
notes: humanized IgG4/kappa; tested as 293F cell supernatant on Octet; also called hu CTLA4 C1D1-V5
B3: huC1D1-V1 (antibody, human IgG4 S228P, kappa, V domains shown)
VH: B2 VH
VL: B2 VL with V58M, T69R, F71Y
notes: humanized IgG4/kappa; tested as 293F cell supernatant on Octet; also called huCTLA4 C1D1-V1
B4: huC1D1-V2 (antibody, human IgG4 S228P, kappa, V domains shown)
VH: B2 VH with V81A
VL: B2 VL with V58M, T69R, F71Y
notes: humanized IgG4/kappa; tested as 293F cell supernatant on Octet; also called hu CTLA4 C1D1-V2
B5: huC1D1-V3 (antibody, human IgG4 S228P, kappa, V domains shown)
VH: B2 VH with A49G
VL: B2 VL with V58M, T69R, F71Y
notes: humanized IgG4/kappa; tested as 293F cell supernatant on Octet; also called hu CTLA4 C1D1-V3
B6: huC1D1-V4 (antibody, human IgG4 S228P, kappa, V domains shown)
VH: B2 VH with A49G, V81A
VL: B2 VL with V58M, T69R, F71Y
notes: humanized IgG4/kappa; tested as 293F cell supernatant on Octet; also called hu CTLA4 C1D1-V4
B7: huC1D1-V6 (antibody, human IgG4 S228P, kappa, V domains shown)
VH: B2 VH with V81A
VL: B2 VL
notes: humanized IgG4/kappa; tested as 293F cell supernatant on Octet; also called hu CTLA4 C1D1-V6
B8: huC1D1-V7 (antibody, human IgG4 S228P, kappa, V domains shown)
VH: B2 VH with A49G
VL: B2 VL
notes: humanized IgG4/kappa; tested as 293F cell supernatant on Octet; also called hu CTLA4 C1D1-V7
B9: huC1D1-V9 (antibody, human IgG4 S228P, kappa, V domains shown)
VH: B2 VH
VL: B2 VL with S43V
notes: humanized IgG4/kappa; tested as 293F cell supernatant on Octet; also called hu CTLA4 C1D1-V9
B10: huC1D1-V10 (antibody, human IgG4 S228P, kappa, V domains shown)
VH: B2 VH with V81A
VL: B2 VL with S43V
notes: humanized IgG4/kappa; tested as 293F cell supernatant on Octet; also called hu CTLA4 C1D1-V10
B11: huC1D1-V11 (antibody, human IgG4 S228P, kappa, V domains shown)
VH: B2 VH with A49G
VL: B2 VL with S43V
notes: humanized IgG4/kappa; tested as 293F cell supernatant on Octet; also called hu CTLA4 C1D1-V11
B12: huC1D1-V12 (antibody, human IgG4 S228P, kappa, V domains shown)
VH: B2 VH with A49G, V81A
VL: B2 VL with S43V
notes: humanized IgG4/kappa; tested as 293F cell supernatant on Octet; also called hu CTLA4 C1D1-V12; huC1D1-VI2
B13: huD1D5-V7 (antibody, human IgG4 S228P, kappa, V domains shown)
VH: EVQLVESGGGLVKPGGSLRLSCAASGFTFSDYGMAWVRQAPGKGLEWVAFISNLAYSVYYADTETGRFTISRDDAKNSLYLQMNSLRAEDTAVYYCARSGLPYAMDYWGQGTTVTVSS
VL: DIQMTQSPSSLSASVGDRVTITCRASQDISNYLNWYQQKPGKVPKLLIYYISRLHSGVPSRFSGSGSGTDFTLTISSLQPEDVATYFCQQGRMLPWTFGGGTKVEIKR
notes: humanized IgG4/kappa; tested as 293F cell supernatant on Octet; also called hu CTLA4 D1D5-V7
B14: huD1D5-V1 (antibody, human IgG4 S228P, kappa, V domains shown)
VH: B13 VH with L45P
VL: B13 VL with V43T, P44V
notes: humanized IgG4/kappa; tested as 293F cell supernatant on Octet; also called huCTLA4 D1D5-V1
B15: huD1D5-V2 (antibody, human IgG4 S228P, kappa, V domains shown)
VH: B13 VH with D74N
VL: B13 VL with V43T, P44V
notes: humanized IgG4/kappa; tested as 293F cell supernatant on Octet; also called hu CTLA4 D1D5-V2
B16: huD1D5-V3 (antibody, human IgG4 S228P, kappa, V domains shown)
VH: B13 VH
VL: B13 VL with V43T, P44V
notes: humanized IgG4/kappa; tested as 293F cell supernatant on Octet; also called hu CTLA4 D1D5-V3
B17: huD1D5-V4 (antibody, human IgG4 S228P, kappa, V domains shown)
VH: B13 VH with A49S, D74N
VL: B13 VL with V43T, P44V
notes: humanized IgG4/kappa; tested as 293F cell supernatant on Octet; also called hu CTLA4 D1D5-V4
B18: huD1D5-V5 (antibody, human IgG4 S228P, kappa, V domains shown)
VH: B13 VH with L45P
VL: B13 VL
notes: humanized IgG4/kappa; tested as 293F cell supernatant on Octet; also called hu CTLA4 DID5-V5
B19: huD1D5-V6 (antibody, human IgG4 S228P, kappa, V domains shown)
VH: B13 VH with D74N
VL: B13 VL
notes: humanized IgG4/kappa; tested as 293F cell supernatant on Octet; also called hu CTLA4 D1D5-V6
B20: huD1D5-V8 (antibody, human IgG4 S228P, kappa, V domains shown)
VH: B13 VH with A49S, D74N
VL: B13 VL
notes: humanized IgG4/kappa; tested as 293F cell supernatant on Octet; also called hu CTLA4 D1D5-V8
B21: huD1D5-V10 (antibody, human IgG4 S228P, kappa, V domains shown)
VH: B13 VH with D74N
VL: B13 VL with F87Y
notes: humanized IgG4/kappa; tested as 293F cell supernatant on Octet; also called hu CTLA4 D1D5-V10
B22: huD1D5-V11 (antibody, human IgG4 S228P, kappa, V domains shown)
VH: B13 VH
VL: B13 VL with F87Y
notes: humanized IgG4/kappa; tested as 293F cell supernatant on Octet; also called hu CTLA4 D1D5-V11
B23: huD1D5-V12 (antibody, human IgG4 S228P, kappa, V domains shown)
VH: B13 VH with A49S, D74N
VL: B13 VL with F87Y
notes: humanized IgG4/kappa; tested as 293F cell supernatant on Octet; also called hu CTLA4 D1D5-V12
B24: chimeric D1B8 anti-CTLA4 antibody (antibody, human IgG4 S228P, kappa, V domains shown)
VH: B1 VH
VL: DIQMTQSPSSLSASLGERISLTCRASQEITGYLSWLQQKPDGTIKRLIYAASTLDSGVPQRFSGSRSGSDYSLTISSLESEDFADYYCLQYASYPRTFGGGTKLEIKR
notes: mouse variable domains on human IgG4/kappa

Molecular target: T1, recombinant human CTLA4 protein with …
Assay: cell-based or functional assay

| Binder | EC50 of IL-2 release (GS-J1 T cells + GS-C1/CD80 cells + human CTLA4-Fc, IL-2 HTRF) [nM] |
| --- | --- |
| B1 | 43.6 |

Molecular target: T2, recombinant human CTLA4-his protein …
Assay: BLI, Octet; antibody from cell supernatant on AHC sensor, CTLA4-his as analyte
Method: Briefly, AHC biosensors (anti-human IgG Fc capture, from ForteBio) were presoaked with 10 mM glycine (pH 1.5) for 3 seconds, and then dipped in a well with running buffer (0.5% w/v BSA in PBST) for 3 seconds, the soaking and dipping steps were repeated for three times. […] A new baseline was run for 180 seconds in another well with running buffer. […] Finally, sensors were presoaked with 10 mM glycine (pH 1.5) for 3 seconds, and then were dipped in a well with running buffer for 3 seconds, the soaking and dipping steps repeated for three times. The association and dissociation curves were fit to a 1:1 Langmuir binding model using ForteBio Data Analysis 8.1.

| Binder | Kd [nM] | koff [s⁻¹] | kon [M⁻¹ s⁻¹] |
| --- | --- | --- | --- |
| B2 | 2.08 | 0.000476 | 229000 |
| B3 | 0.184 | 4.61e-05 | 250000 |
| B4 | 0.559 | 0.000149 | 267000 |
| B5 | 1.16 | 0.000259 | 224000 |
| B6 | 0.952 | 0.000229 | 240000 |
| B7 | 0.821 | 0.000287 | 349000 |
| B8 | 0.362 | 0.000169 | 466000 |
| B9 | 0.736 | 0.000228 | 310000 |
| B10 | 0.943 | 0.000304 | 322000 |
| B11 | 1.25 | 0.000457 | 365000 |
| B12 | 0.995 | 0.000304 | 306000 |
| B13 | 10.2 | 0.000857 | 83900 |
| B14 | < 0.001 | < 1e-07 | 82000 |
| B15 | 0.72 | 6.25e-05 | 86800 |
| B16 | < 0.001 | < 1e-07 | 115000 |
| B17 | 4.36 | 0.000408 | 93500 |
| B18 | 1.73 | 0.00018 | 104000 |
| B19 | 25.8 | 0.00157 | 60900 |
| B20 | 68.1 | 0.00196 | 28800 |
| B21 | 33 | 0.00163 | 49300 |
| B22 | 6.94 | 0.000538 | 77500 |
| B23 | 37.4 | 0.00133 | 35500 |

Molecular target: T1, recombinant human CTLA4 protein with …
Assay: capture ELISA: antibody captured on anti-mouse IgG F(ab')2 coated plate, biotin human CTLA4-Fc 26 ng/ml, streptavidin-HRP, OD(450-630)
Method: (§1) Plates were washed once with wash buffer (PBS+0.05% v/v Tween-20, PBST) and then blocked with 200 µl/well blocking buffer (PBST with 5% w/v non-fatty milk) for 2 hours at 37° C. […] After a final wash, plates were incubated with 100 µl/well substrate TMB (Innoreagents, Cat#TMB-S-002). The reaction was stopped in 15 minutes at room temperature with 50 µl/well 1M H₂SO₄, and the absorbance of the each well was read on a microplate reader using dual wavelength mode with 450 nm for TMB and 630 nm as the reference wavelength, then the OD (450-630) values were plotted against antibody concentration. Data was analyzed using Graphpad Prism software and EC₅₀ values were reported.

| Binder | EC50 [nM] |
| --- | --- |
| B1 | 1.11 |

Molecular target: T1, recombinant human CTLA4 protein with …
Assay: capture ELISA: antibody captured on coated plate (anti-human IgG Fc for the chimeric antibodies), biotin human CTLA4-Fc, streptavidin-HRP, OD(450-630)
Method: as §1
For the capture ELISA, AffiniPure Goat Anti-Human IgG, Fcy fragment specific (Jackson Immuno Research, Cat#109-005-008) was used instead of AffiniPure Goat Anti-Mouse IgG, F(ab′)₂ fragment specific, 100 µl/well.

| Binder | EC50 [nM] |
| --- | --- |
| B1 | 5.78 |
| B24 | 2.84 |

Molecular target: T2, recombinant human CTLA4-his protein …
Assay: SPR, Biacore T200; antibody captured, CTLA4-his as analyte
Method: (§2) Un-reacted moieties on the biosensor surface were blocked with ethanolamine. […] The antigen-antibody association kinetics was followed for 2 minutes and the dissociation kinetics was followed for 10 minutes. The association and dissociation curves were fit to a 1:1 Langmuir binding model using BIAcore evaluation software.

| Binder | Kd [nM] | koff [s⁻¹] | kon [M⁻¹ s⁻¹] |
| --- | --- | --- | --- |
| B1 | 2.24 | 0.000495 | 221000 |

Molecular target: T3, cynomolgus monkey CTLA4-his protein …
Assay: as above
Method: as §2

| Binder | Kd [nM] | koff [s⁻¹] | kon [M⁻¹ s⁻¹] |
| --- | --- | --- | --- |
| B1 | 1.18 | 0.000532 | 451000 |
